Assay results published in the nanobody polyreactivity screen of Harvey et al. (2022).

Assay: yeast display, Sf9 membrane polyspecificity reagent, FACS + sequencing; frameworks hold sequencing errors
How it was run: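 Nanobodies came from a synthetic yeast display library in Saccharomyces cerevisiae BJ5465, induced with galactose for 36–48 hours and stained for 1 hour at 4 °C with 10% biotinylated, detergent-solubilized Sf9 membrane reagent. Cells were enriched on streptavidin microbeads and then FACS-sorted, with low and high (top ~1%) gates set on anti-HA fluorescence for expression and streptavidin fluorescence for reagent binding. Each polyreactivity label reflects the gate a clone came from. Genes were amplified by colony PCR, sequenced by MiSeq 2 × 250 and filtered by CDR length.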

| Sequence | polyreactivity (PSR sort gate) |
| --- | --- |
| QVQLVESGGGLVQAGGSLRLRCAASGSTFWSYAMGWYRQAPGKERELVATITRAGTTNYADSVKGPFTISRDNAKNTVYLQMNSLKPEDTAVYYCAKRKFRWPYQGSYSYIPFGYWGQGTQVTVSS | high polyreactivity |
| QVQLVESGGGLVQAGGSLRLSCAASGSIFSTYAMGWYRQAPGKERELVASINYSGGSTYYADSVKGRFTISRDNAKNTVYLQMNSLKPEDTAVYYCNTGPFVGFDYWGQGTQVTVSS | low polyreactivity |
| QVQLVESGGGLVQAGGSLRLSCAASGSISKYTMGWYRQAPGKERELVAAINWSGGSTYADSVKGRFTISRDNAKNTVYLQMNSLKPEATAVYYCNARAQRGYFGYRYNYWGQGTQVTVSS | high polyreactivity |
| QVQLVESGGGLVQAGGSLRLSCAASGSSFRYNAMGWYREAPGKEREMVAAITSSATSTYYADSVKGRFTISRDNAKNTVYLQMNSLKPEATAVYYCAAPPVYKWVSSRYDYWGQGTQVTVSS | low polyreactivity |
| QVQLVESGGGLVQAGGSLRLSCAASGSTLGQYAMGWYRQAPGKERELVAASRRGVRTYYADSVKGRFTISRDNAKNTVYFQMNSLKPEDTAVFYCAARRDVSRPVVGTMGYWGQGSQVTVSS | high polyreactivity |
| QVQLVETGGGLVQAGGSHSLSCAASVRTVSSYARGWCRQAPGTERELVARITWSGGTYYADSVKGRFTISRDNAKNTVYLQMNRLKPEDTSVYYCAKRSYYWEYYYWGQGTQVTVSS | high polyreactivity |
| QVHLVESGGGLVQAGGSLRLSCAASGSTFRYYAMGWYRQAPGKERELVATINRSGGSTYYADSVKGRFTISRDNAKNTVYLQMNSLKPEDTAVYYCAATHYYSHFLWFASNYDYWGQGTQVTVSS | high polyreactivity |
| QVQLVESGGGLVQAGGSLRLTCAASGSTFPVYAMGWSRQAPGKERELVASISSGADTIYADSVKGRFTISRDNAKNTVYLQMNSLKPEDTSVYYCAVYRPGLTYYDYDYWGQGTQVTVSS | low polyreactivity |
| QVQLVESGGGLVQAGGSLRLSCAASGSTFERYAMGWYRQEPGKEREFVAAISAIGDSTYYADSVKGRFTITRDNAKNTVYLQMNILKPEDTAVYYCAARYTPYHIGRGYYYWGQGTQVTVSS | high polyreactivity |
| QVQLVESGGGLVQAGGSLRLSCAASGRTFAANTMGWYRQAPGKERELVAAINSGGSTYYADSVKGRFTISRDNAKNTVYLHMNSLKPEATAVYYCAVSWWEVPRIFGYSSRYDYWGQGTQVTVSS | high polyreactivity |
| QVQLVESGGGLVQAGGSLRLSCAASGFIFTLYAMGWYRQAPGKERELVASIRGSGGNTYYADSVKGRFTISRDNAKNTVYLQMNSLKPEDTAVYYCAARTYRRPYYSWGQGTQVTVSS | high polyreactivity |
| QVQLVESGGGLVQAGGSLRLSCAASGSTFWIYAMGWYRQPPGKERELVAAISWSTGRTYYADSVKGRFTISRDNAKNTVYLQMNSLKPEDTAVYYCNAGPQHNTLKLFYYWGQGTQVTVSS | low polyreactivity |
| QVQLVESGGGLVQAGGSLRLSCAASGRIFGRYAMGWYRPAPGKERELVAAISRSGGSTYYADSVKGRFTISRDNAKNTVYLHMNSLKPEDTAVYYCAAERWTRRHYSGNDYWGQGTQVTVSS | low polyreactivity |
| QVQLVESGGGLVQAGGSLRLSCAASGRTFPPYAMGWYRQAPGKERELVAAISSDGSTYADSVKGRFTISRDNAKNTVYLQMNSLKPEDTAVYYCAVDYTYSYRKHFGHILYSWGQGTQVTVSS | low polyreactivity |
| QVQLVESGGGLVQAGGSLRLSCAASGFTIDGYAMGWYRQAPGKERELVAAIRRGGRTKYADSVKGRFTISRDNAKNTVYLQLNSLKPEDTAVYYCNAVTRGYYHEMEYWGQGTQVTVSS | high polyreactivity |
| QVQLEESGGGLVQEGGSLRLSCAASGSIFGGYVMGWYRQAPGKERELVAVITKRGGSTYYADSVKGRFTISRDNAKNTVYFQMNSLKPEDTAVYYCNKDGYYASVLGYDYWGQGTQVTVSS | high polyreactivity |
| QVQLVESGGGLVQAGGSLRLSCAASGSTFGSYAMGWYRQAPGKERELVAGISWSGGRTYYADSVKGRFTISRDNAKNTVYLQMNSLKPEDTAVYYCARDTGYYYARYNYWGQGTQVTVSS | low polyreactivity |
| QVQLVESGGGLVQAGGSLRLSCAASGRTFYYNAMGWYRQAPGKERELVATITSGGSTNYADSVKGRFTISRDYAKNTVYLQMNSLKPEDTAVDYCATTRYRTYADVNSRYGYWGQGTQVTVSS | low polyreactivity |
| QVQLVESGGGLVQAGGSLRLSCAASGIIFELYAMGWYRQAPGKERELVAAISNGDSTNYADSVKGRFTISRDNAKNTVYLQMNSLKPEDTAVYYCAARYSTYVRYDYWGQGTQVTVSS | low polyreactivity |
| QVQLLVTGGGLVQAGGTLRISCAASGSIFYSYAMGWYRQSPGKERELVAAITGGGSTNYADSVKGRFTISLDNAKNTVYLQMNSLKPEDTAVYYCATDLYPIGAVIRYDYWGQGTQVTVSS | low polyreactivity |
| QVQLVESGGGLVQAGGSLRLSCAASGSILARYAMGWYRQAPGKERQLVAAISYNGCSTYYADSVKGRFTISRDNAKNTVYLQMNSLKPEDTAVYYCAKAYDTTLTYNYWGQGTQVTVSS | low polyreactivity |
| QVQLVESGGGLVQAGGSLRLSCAASGFTINFYAMGWYRKAPGKERELVAAITASGGGSTYYADSVKGRFTISRDNAKNTVYLQMNSLKPEDTAVYYCNADYPGSFYTYDYWGQGTQVTVSS | low polyreactivity |

| Sequence | polyreactivity (PSR sort gate) |
| --- | --- |
| QVQLVESGGGLVQAGGSLRLSCAASGYILGVYAMGWYRQAPGKERELVASISRSGGSTYYADSVKGRFTISRDNAKNTVYLQMNSLKPEDTAVYYCATRSRTAHFRLRYDYWGQGTQVTVSS | low polyreactivity |
| QVQLVESGGGLVQAGGSLRLSCAASGRIVYVNVMGWYRQAPGKERELVAAINWSDGSTYYADSVKGRFTISRDNAKNTVYLQMNSLKPEETAVYYFNRRGPYGYKAWAIGTIGDLDYWGHGTQVTVSS | low polyreactivity |
| QVQHVESGGVLVQAGGSLRLSCAASGRTFISNVMGWYRPAPGKERELVAGITGGGNTYYADSVKGRFTISRDNAKNTVYLQMNSLKPEDTAVYYCAVRYPSYGLSYVRYGYWGQGTQLTVSS | high polyreactivity |
| QVQLQESGGGLVQAGGSLRLSCAASGSIFDGFNMGWYRQAPGKEREFVAAISYGASTYYADSVKGRFTVSRDNAKNSVYLQMNSLKPEDTAVYYCAVYDELYHVLVYWGRGTQVTVSS | low polyreactivity |
| QVQLVESGGGLVQAGGSLRLSCAASGSIFGYNAMGWYRQAPGKESELVAAISSSGGRTYYADSVKGRFTNSRDNAKNTVYLQMNSLKPEDTAVYYCAALGLYGDYLWYDYWGQGTQVTVSS | high polyreactivity |
| QVQLVESGGGLVQAGGSLRLSCAASGFIFDYYAMGWYRQAPGKERELVAAIDDSGGSTYYADSVKGRFTISRDNAKNTVYLQMNSLKPEDTAVYYCNAGVGWHSYYSNYDYWGQGTQVTVSS | low polyreactivity |
| QVQLVESGGGLVQAGGSLRLSCAASGSIFSKYVMGWYRQAPGKERELVAAISWSGTRTYYADSVKGRFTISRDNAKNTVYLQMNSLKPEDTAVDYCAARRLYAGHQYDYWGQGTQVTVSS | high polyreactivity |
| QVQLVESGGGLVQAGGSLRLSCAASGSIFNRYTMGWYRQAPGKERELVAAISKRGGSTYYADSVKGRFTISRDNAKNTVYLQMNSLKPEDTAVYYCAAAAYHSGKGGGYWGQGTQVTVSS | high polyreactivity |
| QVQLVESGGGLVQAGGSLRLSCAASGRIFYSNAMGWYRQAPGKERELVAAITTSGASTYYADSVKGRFTISRDNAKNTVYLQMNSLKPEDTSVYYCATYAVVYPFAMDYWGQGTQVTVSS | low polyreactivity |
| QVQLVESGGGLVQAGGSLRLSCAASGITLGAYAMGWYRQAPGKERELVARIRIGGSTYYADSVKGRFTISRDNAKNTVYLQMNSLKPEDTAVYYCNRDFWYGVATGREFYLYDYWGQGTQVTVSS | low polyreactivity |
| QVQHVESGGGLVQAGGSLRLSCAASGFTFYSYVMGWYRQAPGKERELVAAITRGGSTYYADSVKGRFTISRDNAKNTVYLQMTSLKPEDTAVYYCAKRPSYGYNYWGHGTQVTVSS | low polyreactivity |
| QVQLVESGGGLVQAGGSLRLSCAATGFIVAWYAMGWYRQAPGKERELVAAISSSVGSTYYADSVKGRFTISRDIAKNTVYLQMNSLKPEDTAVYYCNADEYWASGYDPYDYWGQGTQVTVSS | low polyreactivity |
| QVQLVESGGGLVQAGGSLRLSCAASGRIFTYDAMGWYRPAPGKERELLATITSGGSTNYADSVKGRFTISRDNAMNTVYLQMNSLKPEDTAVDYCATRKYRVPRSYYWGQGTQVTVSS | high polyreactivity |
| QVQLVESGGGLVQAGGSLRLSCAASGSTFAAKAMGWYRHAPGKERELVAAITSSGGSTYYADSVKGRFTISRDNAKNTVYLQMNSLKPEDTAVYYCNKDNERYVRIYDSWGQGTQVTVAS | low polyreactivity |
| QDQLVESAAGLVQAGGSLRLSCAASGRTLYTNALGWYIQAPGKERELVAAISSDSSTKYADSVKGRFTISRDNAKNTVYLQMNSLKPEDTAVYYCARRGAFYYLYGHQYALYDYWGQGTQVTVSS | low polyreactivity |
| QVQLVESGGGLVQAGGSLRLSCAASGSIFDDYAMGWYRQAPGKERELVAAITSGGSTYYADSVKGRFTISRDNAKKTVYLLMYSLKPEDTAVYFRATRYHWSSSFAPVGAYGYWGQGTQVTVSS | low polyreactivity |
| QVQLVESGGGLVQAGGSLRLSCAASGSTFPYYAMGWYRQAPGKERELVAAISSSGGSTYYADSVKGRFTFSRDNAKNTVYLLMNSLKPEDTAVYYCNVVKSRGLFSYDYWGQGSQVTVSS | high polyreactivity |
| QVQLVESGGGLVQAGGSLRLSCAASGSTIPPYAMGWYRQAPGNERELVAAITSGGSTYYADSVKGRFTISRDNAKNTVYLQMNSLKPEDTAVYYCAASWDPWEYDYWGQGTQVTVSS | low polyreactivity |
| QVQLVESGGGLVQAGGSLRLSCAASGFTFYRNAMGWYRQAPGKERELVAAISGSGGRTYADSVKGRFTISRDIAKNTVYLQMNSLKPEDTAVYYCAASGYSSYRRYSTSNGYWGQGTQVTVSS | high polyreactivity |
| QVQLVESGGGLVQAGGSLRLSCAASGRTFDRYAMGWARQAPGKERELVATISRSGGSTYYADSVKGRFTISRDNAKNTVYLQMNSLKPEDSAVYYCAARQRTTSDGWRDSWGQGTQVTVSS | high polyreactivity |
| QVQLVESGGGLVQAGGSLRLSCAASGSTFGHYAMGWYRQAPGKERELVAAITRRGGSTYYADSVKGRFTISRDNAKNTVYLQMNSLKPEDTAVYYCATDKHYVYYSSHMGYWGQGTQVTVSS | high polyreactivity |
